From US20260285998 (published 2026)

T1: human BCMA-Fc (human)
T1 chain: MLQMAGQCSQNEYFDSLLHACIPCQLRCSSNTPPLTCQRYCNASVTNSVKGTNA


Key:
human BCMA-Fc = target: T1, human BCMA-Fc; assay: SPR, 25C
cynomolgus BCMA-Fc = cynomolgus BCMA-Fc (cynomolgus); assay: SPR, 25C
cynomolgus BCMA-Fc (cynomolgus), sequence (chain, as listed by the source): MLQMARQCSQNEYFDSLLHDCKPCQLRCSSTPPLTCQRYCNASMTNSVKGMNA

| Binder | Kd (human BCMA-Fc) [nM] | Kd (cynomolgus BCMA-Fc) [nM] |
| --- | --- | --- |
| P1AG5031 (54_VH2a/VL2a) (antibody, V domains shown) VH: EVQLLESGGGLVQPGGSLRLSCAASGFTFSNAWMDWVRQAPGKGLEWVSQITAKSNNYATYYADSVKGRFTISRDNSKNTLYLQMNSLRAEDTAVYYCTDDGYHWGQGTLVTVSS VL: DIQMTQSPSSLSASVGDRVTITCRASEDIRNGLAWYQQKPGKAPKLLIYNANSLHTGVPSRFSGSGSGTDFTLTISSLQPEDFATYYCEDTSKYPYTFGQGTKLEIK | 2.4 | 4.7 |
| P1AG5056 (54_VH1b/VL1a_N651A) (antibody, V domains shown) VH: EVQLVESGGGLVKPGGSLRLSCAASGFTFSNAWMDWVRQAPGKGLEWIAQITAKSNNYATYYAAPVKGRFTISRDDSKNTLYLQMNSLKTEDTAVYYCTDDGYHWGQGTLVTVSS VL: AIQMTQSPSSLSASVGDRVTITCRASEDIRNGLAWYQQKPGKAPKLLIYAANSLHTGVPSRFSGSGSGTDFTLTISSLQPEDFATYYCEDTSKYPYTFGQGTKLEIK | 4.2 | 13 |
| P1AG5013 (54_VH2a/VL1a_L1_pGL) (antibody, V domains shown) VH: EVQLLESGGGLVQPGGSLRLSCAASGFTFSNAWMDWVRQAPGKGLEWVSQITAKSNNYATYYADSVKGRFTISRDNSKNTLYLQMNSLRAEDTAVYYCTDDGYHWGQGTLVTVSS VL: AIQMTQSPSSLSASVGDRVTITCRASEDIRNDLGWYQQKPGKAPKLLIYNANSLHTGVPSRFSGSGSGTDFTLTISSLQPEDFATYYCEDTSKYPYTFGQGTKLEIK | 2.4 | 1.9 |
| P1AG5046 (54_VH1b/VL1a_T699S) (antibody, V domains shown) VH: EVQLVESGGGLVKPGGSLRLSCAASGFTFSNAWMDWVRQAPGKGLEWIAQITAKSNNYATYYAAPVKGRFTISRDDSKNTLYLQMNSLKTEDTAVYYCTDDGYHWGQGTLVTVSS VL: AIQMTQSPSSLSASVGDRVTITCRASEDIRNGLAWYQQKPGKAPKLLIYNANSLHSGVPSRFSGSGSGTDFTLTISSLQPEDFATYYCEDTSKYPYTFGQGTKLEIK | 1.9 | 3.9 |
| P1AG5065 (54_VH1a_Y292D/VL1a_T699S) (antibody, V domains shown) VH: EVQLVESGGGLVKPGGSLRLSCAASGFTFSNAWMDWVRQAPGKGLEWVGQITAKSNNYATDYAAPVKGRFTISRDDSKNTLYLQMNSLKTEDTAVYYCTDDGYHWGQGTLVTVSS VL: AIQMTQSPSSLSASVGDRVTITCRASEDIRNGLAWYQQKPGKAPKLLIYNANSLHSGVPSRFSGSGSGTDFTLTISSLQPEDFATYYCEDTSKYPYTFGQGTKLEIK | 2.6 | 6.4 |
| P1AG5064 (54_VH1b/VL1a_N651A_N695S) (antibody, V domains shown) VH: EVQLVESGGGLVKPGGSLRLSCAASGFTFSNAWMDWVRQAPGKGLEWIAQITAKSNNYATYYAAPVKGRFTISRDDSKNTLYLQMNSLKTEDTAVYYCTDDGYHWGQGTLVTVSS VL: AIQMTQSPSSLSASVGDRVTITCRASEDIRNGLAWYQQKPGKAPKLLIYAASSLHTGVPSRFSGSGSGTDFTLTISSLQPEDFATYYCEDTSKYPYTFGQGTKLEIK | 3.5 | 13 |
| P1AG5071 (54_VH2a/VL1a_T699S) (antibody, V domains shown) VH: EVQLLESGGGLVQPGGSLRLSCAASGFTFSNAWMDWVRQAPGKGLEWVSQITAKSNNYATYYADSVKGRFTISRDNSKNTLYLQMNSLRAEDTAVYYCTDDGYHWGQGTLVTVSS VL: AIQMTQSPSSLSASVGDRVTITCRASEDIRNGLAWYQQKPGKAPKLLIYNANSLHSGVPSRFSGSGSGTDFTLTISSLQPEDFATYYCEDTSKYPYTFGQGTKLEIK | 3.4 | 6.5 |
| P1AG5062 (E04 parental) (antibody, V domains shown) VH: QVQLQQPGAELVKPGASVKLSCKASGYTFTNYWMHWVKQRPGQGLEWIGIIHPNSGSTNYNEKFKSKATLTVDKSSSTAYMQLSSLTSEDSAVYYCARGIYDYPFAYWGQGTLVTVSS VL: DIVLTQSPASLAVSLGQRATISCRASESVSIHGTHLMHWYQQKPGQPPKLLIYAASNLESGVPARFSGSGSETDFTLNIHPVEEEDAATYFCQQSIEDPYTFGGGTKLEIK | 3.1 | 33 |
| P1AG5007 (E04_VH1a/VL1e) (antibody, V domains shown) VH: QVQLVQSGAEVKKPGASVKVSCKASGYTFTNYWMHWVRQAPGQGLEWMGIIHPNSGSTNYNEKFQGRVTMTRDTSTSTVYMELSSLRSEDTAVYYCARGIYDYPFAYWGQGTLVTVSS VL: DIQMTQSPSSLSASVGDRVTITCRASESVSIHGTHLMHWYQQKPGKAPKLLIYAASSLQSGVPSRFSGSGSGTDFTLTISSLQPEDFATYYCQQSIEDPYTFGGGTKVEIK | 3 | 12 |
| P1AG5053 (E04_VH1a/VL1h) (antibody, V domains shown) VH: QVQLVQSGAEVKKPGASVKVSCKASGYTFTNYWMHWVRQAPGQGLEWMGIIHPNSGSTNYNEKFQGRVTMTRDTSTSTVYMELSSLRSEDTAVYYCARGIYDYPFAYWGQGTLVTVSS VL: DIQMTQSPSSLSASVGDRVTITCRASESVSIHGTHLMHWYQQKPGKAPKLLIYAASNLESGVPSRFSGSGSETDFTLTISSLQPEDFATYFCQQSIEDPYTFGGGTKVEIK | 2.4 | 13 |
| P1AG5078 (E04_VH1b/VL1d) (antibody, V domains shown) VH: QVQLVQSGAEVKKPGASVKVSCKASGYTFTNYWMHWVRQAPGQGLEWMGIIHPNSGSTNYNEKFQGRVTMTVDKSTSTVYMELSSLRSEDTAVYYCARGIYDYPFAYWGQGTLVTVSS VL: DIQMTQSPSSLSASVGDRVTITCRASESVSIHGTHLMHWYQQKPGKAPKLLIYAASNLQSGVPSRFSGSGSETDFTLTISSLQPEDFATYYCQQSIEDPYTFGGGTKVEIK | 2.4 | 22 |
| P1AG5004 (E04_VH1a/VL1b) (antibody, V domains shown) VH: QVQLVQSGAEVKKPGASVKVSCKASGYTFTNYWMHWVRQAPGQGLEWMGIIHPNSGSTNYNEKFQGRVTMTRDTSTSTVYMELSSLRSEDTAVYYCARGIYDYPFAYWGQGTLVTVSS VL: DIQMTQSPSSLSASVGDRVTITCRASESVSIHGTHLMHWYQQKPGKAPKLLIYAASNLESGVPSRFSGSGSETDFTLTISSLQPEDFATYYCQQSIEDPYTFGGGTKVEIK | 2.5 | 16 |
| P1AG5036 (E04_VH1a/VL1f) (antibody, V domains shown) VH: QVQLVQSGAEVKKPGASVKVSCKASGYTFTNYWMHWVRQAPGQGLEWMGIIHPNSGSTNYNEKFQGRVTMTRDTSTSTVYMELSSLRSEDTAVYYCARGIYDYPFAYWGQGTLVTVSS VL: DIQMTQSPSSLSASVGDRVTITCRASESVSIHGTHLMHWYQQKPGKAPKLLIYAASSLQSGVPSRFSGSGSETDFTLTISSLQPEDFATYYCQQSIEDPYTFGGGTKVEIK | 2.9 | 9.5 |
| P1AG5076 (E04_VH1b/VL1h) (antibody, V domains shown) VH: QVQLVQSGAEVKKPGASVKVSCKASGYTFTNYWMHWVRQAPGQGLEWMGIIHPNSGSTNYNEKFQGRVTMTVDKSTSTVYMELSSLRSEDTAVYYCARGIYDYPFAYWGQGTLVTVSS VL: DIQMTQSPSSLSASVGDRVTITCRASESVSIHGTHLMHWYQQKPGKAPKLLIYAASNLESGVPSRFSGSGSETDFTLTISSLQPEDFATYFCQQSIEDPYTFGGGTKVEIK | 1.9 | 23 |

These reach a lower Kd (human BCMA-Fc). Values come first.

| Kd (human BCMA-Fc) [nM] | Kd (cynomolgus BCMA-Fc) [nM] | Binder |
| --- | --- | --- |
| 1.4 | 1.9 | P1AG5061 (54 parental) (antibody, V domains shown) VH: EVQLVESGGGLVKPGESLRLSCAASGFTFSNAWMDWVRQAPGKRLEWIAQITAKSNNYATYYAAPVKGRFTISRDDSKNTLYLQMNSLKKEDTAVYYCTDDGYHWGQGTLVTVSS VL: AIQMTQSPSSLSASVGDRVTIACRASEDIRNGLAWYQQKPGKAPKLLIYNANSLHTGVPSRFSGSGSGTDFTLTISSLQPEDEAIYYCEDTSKYPYTFGQGTKLEIK |
| 1.7 | 4 | P1AG5057 (54_VH1a_Y292D/VL1a) (antibody, V domains shown) VH: EVQLVESGGGLVKPGGSLRLSCAASGFTFSNAWMDWVRQAPGKGLEWVGQITAKSNNYATDYAAPVKGRFTISRDDSKNTLYLQMNSLKTEDTAVYYCTDDGYHWGQGTLVTVSS VL: AIQMTQSPSSLSASVGDRVTITCRASEDIRNGLAWYQQKPGKAPKLLIYNANSLHTGVPSRFSGSGSGTDFTLTISSLQPEDFATYYCEDTSKYPYTFGQGTKLEIK |
| 1.3 | 4.3 | P1AG5080 (54_VH1a_Y292D/VL2a) (antibody, V domains shown) VH: EVQLVESGGGLVKPGGSLRLSCAASGFTFSNAWMDWVRQAPGKGLEWVGQITAKSNNYATDYAAPVKGRFTISRDDSKNTLYLQMNSLKTEDTAVYYCTDDGYHWGQGTLVTVSS VL: DIQMTQSPSSLSASVGDRVTITCRASEDIRNGLAWYQQKPGKAPKLLIYNANSLHTGVPSRFSGSGSGTDFTLTISSLQPEDFATYYCEDTSKYPYTFGQGTKLEIK |
| 1.3 | 3.2 | P1AG5072 (54_VH1b/VL1a) (antibody, V domains shown) VH: EVQLVESGGGLVKPGGSLRLSCAASGFTFSNAWMDWVRQAPGKGLEWIAQITAKSNNYATYYAAPVKGRFTISRDDSKNTLYLQMNSLKTEDTAVYYCTDDGYHWGQGTLVTVSS VL: AIQMTQSPSSLSASVGDRVTITCRASEDIRNGLAWYQQKPGKAPKLLIYNANSLHTGVPSRFSGSGSGTDFTLTISSLQPEDFATYYCEDTSKYPYTFGQGTKLEIK |
| 1.7 | 1.2 | P1AG5027 (54_VH1b/VL1a_L1_pGL) (antibody, V domains shown) VH: EVQLVESGGGLVKPGGSLRLSCAASGFTFSNAWMDWVRQAPGKGLEWIAQITAKSNNYATYYAAPVKGRFTISRDDSKNTLYLQMNSLKTEDTAVYYCTDDGYHWGQGTLVTVSS VL: AIQMTQSPSSLSASVGDRVTITCRASEDIRNDLGWYQQKPGKAPKLLIYNANSLHTGVPSRFSGSGSGTDFTLTISSLQPEDFATYYCEDTSKYPYTFGQGTKLEIK |
| 1.6 | 28 | P1AG5063 (E04_VH1a/VL1a) (antibody, V domains shown) VH: QVQLVQSGAEVKKPGASVKVSCKASGYTFTNYWMHWVRQAPGQGLEWMGIIHPNSGSTNYNEKFQGRVTMTRDTSTSTVYMELSSLRSEDTAVYYCARGIYDYPFAYWGQGTLVTVSS VL: DIQMTQSPSSLSASVGDRVTITCRASESVSIHGTHLMHWYQQKPGKAPKLLIYAASNLESGVPSRFSGSGSGTDFTLTISSLQPEDFATYYCQQSIEDPYTFGGGTKVEIK |
| 1.8 | 20 | P1AG5044 (E04_VH1b/VL1b) (antibody, V domains shown) VH: QVQLVQSGAEVKKPGASVKVSCKASGYTFTNYWMHWVRQAPGQGLEWMGIIHPNSGSTNYNEKFQGRVTMTVDKSTSTVYMELSSLRSEDTAVYYCARGIYDYPFAYWGQGTLVTVSS VL: DIQMTQSPSSLSASVGDRVTITCRASESVSIHGTHLMHWYQQKPGKAPKLLIYAASNLESGVPSRFSGSGSETDFTLTISSLQPEDFATYYCQQSIEDPYTFGGGTKVEIK |
